In the supplement of paper PMC10126150:
± gives the standard deviation of the averaged measurements.

These sequences were tested on ATP (assay: switch fluorescence ratio, 500 uM ATP over buffer (Cy3 cluster intensity, sum of 5 cycles each) (fold (ratio)); higher = stronger signal-on switching upon ATP binding; sequences stand for … in TCGTCGGCAGCGTCAGATGTGTATAAGAGACAGTTTTTTTTTTTTTTTTTTTTTTTTT…TC). Details: aptamer strand: ATP DNA aptamer (quencher-CACCTGGGGGAGTATTGCGGAGGAAGG + anchor), 100 nM annealed; ATP concentration: 500 uM.
Outline: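 Cy3-labelled switching-strand clusters on a modified Illumina MiSeq flow-cell were annealed to 100 nM quencher-labelled ATP aptamer and imaged first in selection buffer, then after 15 min with 500 uM ATP at 22 °C. NaOH stripping and re-annealing separated each of five buffer/ATP cycles, and clusters outside 100-1000 RFU were excluded. The fluorescence ratio sums target-cycle Cy3 intensity over buffer-cycle Cy3 intensity per cluster and averages it per switch-domain sequence.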
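Note: ATP exposure 15 min at 22 °C before imaging.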

Row | Sequence | switch fluorescence ratio
1 | TAATTAATTT | 1.02 ± 0.025
2 | ATGGGGGGGC | 1.01 ± 0.022
3 | TAAAGCGTTG | 0.9656 ± 0.0077
4 | TCTTGCCCTG | 0.977 ± 0.058
5 | TTGCTCTAGC | 1.03 ± 0.018
6 | AAAGAGTGTT | 0.9776 ± 0.0081
7 | TGGGGTATGG | 0.978 ± 0.033
8 | TTTTAGGAAT | 0.997 ± 0.027
9 | AAATTCTGCG | 0.941 ± 0.0098
10 | GTTTTCAGGG | 1.02 ± 0.037
11 | GGGAAAAGTT | 1 ± 0.04
12 | GATTCTGATT | 0.9756 ± 0.0036
13 | AAGTCGGCTG | 0.9757 ± 0.002
14 | GACCATTTGT | 0.995 ± 0.033
15 | GGGGCGTACG | 1.05 ± 0.2
16 | AGAGAGGGTG | 1.06 ± 0.048
17 | TAGGTCTAGG | 1 ± 0.023
18 | TCGTTGGGGT | 0.987 ± 0.029
19 | TTCGAAAGTT | 0.987 ± 0.026
20 | GGTGTTAGAG | 0.985 ± 0.0036
21 | TATGTGGGAT | 0.9734 ± 0.0016
22 | CATGGCAACG | 0.993 ± 0.038
23 | ATGTTTATAG | 0.98 ± 0.024
24 | AAAAAGATGA | 0.9626 ± 0.0028
25 | TGAGCTGGTA | 0.981 ± 0.034

Row | Sequence | switch fluorescence ratio
26 | ACTATATGAT | 1.08 ± 0.043
27 | GGCGGAAGTC | 1.01 ± 0.013
28 | GGGATTGTTG | 0.995 ± 0.041
29 | TTGATGCGTT | 1.01 ± 0.015
30 | CGGTTGGAGC | 0.988 ± 0.042
31 | TTTCTTCGCG | 1.027 ± 0.0032
32 | CGTGGCCTGG | 0.994 ± 0.024
33 | CGATAAAGGT | 1.016 ± 0.0095
34 | TTTGGTTTCC | 1.01 ± 0.053
35 | CGTTTCTTTT | 0.997 ± 0.02
36 | TCATCTTGTC | 1.01 ± 0.04
37 | CTATGGAGTG | 0.9928 ± 0.0039
38 | GGGAAATGTG | 1 ± 0.023
39 | TTCGCATATT | 1.47 ± 0.26
40 | TGGTTTGGTA | 0.961 ± 0.011
41 | TTTAGGACGC | 1.02 ± 0.022
42 | CCGTGGGTAC | 5.55 ± 0.7
43 | GAGCCTTATG | 0.994 ± 0.033
44 | TTTAATAGGG | 0.995 ± 0.036
45 | GTTGGTCTGA | 0.954 ± 0.022
46 | TATGAGCGCT | 1.03 ± 0.054
47 | ACCCGCCTTT | 1.086 ± 0.0021
48 | GCTTCTGGTT | 0.988 ± 0.023
49 | TGGCGTTGGG | 1.02 ± 0.046
50 | TCTGTTCTT | 1 ± 0.023

Row | Sequence | switch fluorescence ratio
51 | TCACGTTAAT | 1.2 ± 0.058
52 | AGGGGTGTAG | 1.03 ± 0.057
53 | TTACGTGCTG | 0.9806 ± 0.0083
54 | CGGTTTTTGC | 1.03 ± 0.058
55 | TTCCTAATGG | 1.04 ± 0.046
56 | GATACGGACA | 1.42 ± 0.019
57 | AGGTGTCGTC | 0.975 ± 0.018
58 | ATCTGCATGA | 1.01 ± 0.063
59 | GGGTTGCACG | 0.9936 ± 0.0015
60 | AGCTCTAAAT | 1.04 ± 0.068
61 | ATAAAGTTGG | 0.991 ± 0.0075
62 | TGCCGGGGGC | 1.04 ± 0.025
63 | TGACTCGGGC | 0.993 ± 0.022
64 | GGGTCACAAA | 0.978 ± 0.01
65 | GCGCAAATTT | 0.999 ± 0.017
66 | ATAGGGCCGC | 1.02 ± 0.034
67 | AGGTGTTAGC | 0.955 ± 0.046
68 | TATTTTTCCG | 1.03 ± 0.012
69 | CTTATGTATT | 0.993 ± 0.019
70 | GAGTGTTGGG | 1.004 ± 0.0052
71 | CTGTCAGATT | 0.974 ± 0.025
72 | TGCAGGTCTT | 1 ± 0.052
73 | GATTCGTATT | 0.9757 ± 0.0047
74 | ATACAGGAAC | 1.03 ± 0.038
75 | GAAGGTAGAG | 0.99 ± 0.042

Row | Sequence | switch fluorescence ratio
76 | GGTATCAGTT | 1.0006 ± 0.0002
77 | TGGTCAGAGT | 1.01 ± 0.023
78 | TTAAACTCGG | 0.998 ± 0.053
79 | CGATCGAGGA | 0.991 ± 0.036
80 | GCAGGTAGGG | 0.998 ± 0.039
81 | TCATATTGCG | 0.983 ± 0.019
82 | AACCGGGGTT | 0.996 ± 0.046
83 | TTCTTTGGTT | 0.9889 ± 0.0055
84 | TGGTATTTAT | 1.012 ± 0.0072
85 | TGCTATATTA | 0.99152 ± 0.00065
86 | TAACATAATT | 1 ± 0.023
87 | CGGTTCGCGA | 1.03 ± 0.019
88 | TTGGTTCATT | 1.01 ± 0.021
89 | TAGTTGACCG | 1.12 ± 0.11
90 | CGTAGGGTTA | 1.01 ± 0.025
91 | GGTCATGTTT | 0.993 ± 0.043
92 | AGGGGTGCTA | 0.9996 ± 0.0095
93 | AGCAGAAATG | 0.9979 ± 0.0074
94 | GTTTTATAAA | 0.9762 ± 0.0028
95 | GAGGAATTTA | 1.02 ± 0.028
96 | TTTGGATTTT | 1 ± 0.045
97 | ATCTCCTGCC | 1.475 ± 0.0051
98 | GAGGGGCCGA | 0.973 ± 0.016
99 | CGGAATGCAG | 1.076 ± 0.0032
100 | TATAGTGTAA | 1.01 ± 0.048
